Biological target: HLA-A*02:01 (Homo sapiens, UniProt P04439, D140Y/D185E/D98H/E176V/E277Q/G131W/G231S/I119V/I121R/I166T/I218V/L300P/L318F/N151K/N90K/P208A/P217A/Q86G/Q94H/R138H/R169H/T345S)
Experiment: MHC binding assay (UV-ligand exchange, beta2m ELISA)
Conditions: binding to HLA-A*02:01 ranged by peptide exchange yield (UV-ligand exchange, β2m ELISA)
Source text: Candidate peptides for T cell based therapies according to the present invention were further tested for their MHC binding capacity (affinity). The individual peptide-MHC complexes were produced by UV-ligand exchange, where a UV-sensitive peptide is cleaved upon UV-irradiation, and exchanged with the peptide of interest as analyzed. Only peptide candidates that can effectively bind and stabilize the peptide-receptive MHC molecules prevent dissociation of the MHC complexes. To determine the yield of the exchange reaction, an ELISA was performed based on the detection of the light chain (β2m) of stabilized MHC complexes. The assay was performed as generally described in Rodenko et al. (Rodenko et al., 2006).
96 well MAXISorp plates (NUNC) were coated over night with 2 ug/ml streptavidin in PBS at room temperature, washed 4× and blocked for 1 h at 37° C. in 2% BSA containing blocking buffer. […] Peptide-MHC monomers of the UV-exchange reaction were diluted 100 fold in blocking buffer. Samples were incubated for 1 h at 37° C., washed four times, incubated with 2 ug/ml HRP conjugated anti-β2m for 1 h at 37° C., washed again and detected with TMB solution that is stopped with […]. Absorption was measured at 450 nm. Candidate peptides that show a high exchange yield (preferably higher than 50%, most preferred higher than 75%) are generally preferred for a generation and production of antibodies or fragments thereof, and/or T cell receptors or fragments thereof, as they show sufficient avidity to the MHC molecules and prevent dissociation of the MHC complexes.

Substance | Peptide exchange
1 (SLMEPPAVLLL; listed as Homo sapiens) [compound 1] | “+++” (≥50 = +++)
7 (SLVGLLLYL; listed as Homo sapiens) [compound 7] | “++++” (≥75% = ++++)
9 (GAAKDLPGV; listed as Homo sapiens) [compound 9] | “++” (≥20% = ++)
10 (FLATFPLAAV; listed as Homo sapiens) [compound 10] | “++++” (≥75% = ++++)
12 (SLWPDPMEV; listed as Homo sapiens) [compound 12] | “+++” (≥50 = +++)
13 (YLMDESLNL; listed as Homo sapiens) [compound 13] | “+++” (≥50 = +++)
20 (RMIEYFIDV; listed as Homo sapiens) [compound 20] | “+++” (≥50 = +++)
21 (VLDELDMEL; listed as Homo sapiens) [compound 21] | “++” (≥20% = ++)
23 (VLLDDIFAQL; listed as Homo sapiens) [compound 23] | “+++” (≥50 = +++)
24 (SLSDGLEEV; listed as Homo sapiens) [compound 24] | “++” (≥20% = ++)
25 (FLPDEPYIKV; listed as Homo sapiens) [compound 25] | “+++” (≥50 = +++)
27 (ILADIVISA; listed as Homo sapiens) [compound 27] | “+++” (≥50 = +++)
30 (LILDWVPYI; listed as Homo sapiens) [compound 30] | “+++” (≥50 = +++)
31 (YLAPELFVNV; listed as Homo sapiens) [compound 31] | “++” (≥20% = ++)
32 (KLDDLTQDLTV; listed as Homo sapiens) [compound 32] | “++” (≥20% = ++)
34 (ILVEADSLWVV; listed as Homo sapiens) [compound 34] | “+++” (≥50 = +++)
35 (KINDTIYEV; listed as Homo sapiens) [compound 35] | “+++” (≥50 = +++)
40 (TLLVKVFSV; listed as Homo sapiens) [compound 40] | “+++” (≥50 = +++)

Further lines, results first:

Peptide exchange | Substance
“++++” (≥75% = ++++) | 4 (GIMEHITKI; listed as Homo sapiens) [compound 4]
“+++” (≥50 = +++) | 5 (HLTEVYPEL; listed as Homo sapiens) [compound 5]
“+++” (≥50 = +++) | 6 (VLVSDGVHSV; listed as Homo sapiens) [compound 6]
“+++” (≥50 = +++) | 14 (AAYGGLNEKSFV; listed as Homo sapiens) [compound 14]
“++” (≥20% = ++) | 15 (VLLTFKIFL; listed as Homo sapiens) [compound 15]
“+++” (≥50 = +++) | 16 (VLFQGQASL; listed as Homo sapiens) [compound 16]
“+++” (≥50 = +++) | 17 (GLLPGDRLVSV; listed as Homo sapiens) [compound 17]
“++” (≥20% = ++) | 18 (YLVAKLVEV; listed as Homo sapiens) [compound 18]
“++++” (≥75% = ++++) | 19 (FMVDNEAIYDI; listed as Homo sapiens) [compound 19]
“+++” (≥50 = +++) | 22 (IMEENPGIFAV; listed as Homo sapiens) [compound 22]
“+++” (≥50 = +++) | 26 (ALLELAEEL; listed as Homo sapiens) [compound 26]
“+++” (≥50 = +++) | 28 (QLLDETSAITL; listed as Homo sapiens) [compound 28]
“+++” (≥50 = +++) | 29 (KMLGIPISNILMV; listed as Homo sapiens) [compound 29]
“++” (≥20% = ++) | 33 (VLLSLLEKV; listed as Homo sapiens) [compound 33]
“+++” (≥50 = +++) | 39 (SVAPNLPAV; listed as Homo sapiens) [compound 39]

— patent US10738094B2, “Peptides and combination of peptides for use in immunotherapy against ovarian cancer and other cancers” (immatics biotechnologies GmbH, priority 2015, dated 2020)
